Measured values taken from paper PMC6039102 (Nature, 2018).
“And” between values parts separate entries of the source, which are not always exact repeats. Equal entries are not always repeated.

B1: KSHV major capsid protein (MCP) (natural protein)
chain: MEATLEQRPFPYLATEANLLTQIKESAADGLFKSFQLLLGKDAREGSVRFEALLGVYTNVVEFVKFLETALAAACVNTEFKDLRRMIDGKIQFKISMPTIAHGDGRRPNKQRQYIVMKACNKHHIGAEIELAAADIELLFAEKETPLDFTEYAGAIKTITSALQFGMDALERGLVDTVLAVKLRHAPPVFILKTLGDPVYSERGLKKAVKSDMVSMFKAHLIEHSFFLDKAELMTRGKQYVLTMLSDMLAAVCEDTVFKGVSTYTTASGQQVAGVLETTDSVMRRLMNLLGQVESAMSGPAAYASYVVRGANLVTAVSYGRAMRNFEQFMARIVDHPNALPSVEGDKAALADGHDEIQRTRIAASLVKIGDKFVAIESLQRMYNETQFPCPLNRRIQYTYFFPVGLHLPVPRYSTSVSVRGVESPAIQSTETWVVNKNNVPLCFGYQNALKSICHPRMHNPTQSAQALNQAFPDPDGGHGYGLRYEQTPNMNLFRTFHQYYMGKNVAFVPDVAQKALVTTEDLLHPTSHRLLRLEVHPFFDFFVHPCPGARGSYRATHRTMVGNIPQPLAPREFQESRGAQFDAVTNMTHVIDQLTIDVIQETAFDPAYPLFCYVIEAMIHGQEEKFVMNMPLIALVIQTYWVNSGKLAFVNSYHMVRFICTHMGNGSIPKEAHGHYRKILGELIALEQALLKLAGHETVGRTPITHLVSALLDPHLLPPFAYHDVFTDLMQKSSRQPIIKIGDQNYDNPQNRATFINLRGRMEDLVNNLVNIYQTRVNEDHDERHVLDVAPLDENDYNPVLEKLFYYVLMPVCSNGHMCGMGVDYQNVALTLTYNGPVFADVVNAQDDILLHLENGTLKDILQAGDIRPTVDMIRVLCTSFLTCPFVTQAARVITKRDPAQSFATHEYGKDVAQTVLVNGFGAFAVADRSREAAETMFYPVPFNKLYADPLVAATLHPLLANYVTRLPNQRNAVVFNVPSNLMAEYEEWHKSPVAAYAASCQATPGAISAMVSMHQKLSAPSFICQAKHRMHPGFAMTVVRTDEVLAEHILYCSRASTSMFVGLPSVVRREVRSDAVTFEITHEIASLHTALGYSSVIAPAHVAAITTDMGVHCQDLFMIFPGDAYQDRQLHDYIKMKAGVQTGSPGNRMDHVGYTAGVPRCENLPGLSHGQLATCEIIPTPVTSDVAYFQTPSNPRGRAACVVSCDAYSNESAERLLYDHSIPDPAYECRSTNNPWASQRGSLGDVLYNITFRQTALPGMYSPCRQFFHKEDIMRYNRGLYTLVNEYSARLAGAPATSTTDLQYVVVNGTDVFLDQPCHMLQEAYPTLAASHRVMLDEYMSNKQTHAPVHMGQYLIEEVAPMKRLLKLGNKVVY
B2: KSHV smallest capsid protein (SCP) (natural protein)
chain: MSNFKVRDPVIQERLDHDYAHHPLVARMNTLDQGNMSQAEYLVQKRHYLVFLIAHHYYEAYLRRMGGIQRRDHLQTLRDQKPRERADRVSAASAYDAGTFTVPSRPGPASGTTPGGQDSLGVSGSSITTLSSGPHSLSPASDILTTLSSTTETAAPAVADARKPPSGKKK

Key:
Experiment in all cases: cryo-EM structure
[1] = target: KSHV triplex protein Tri1 (Kaposi's sarcoma-associated herpesvirus (KSHV))
[2] = target: KSHV triplex protein Tri2 (Kaposi's sarcoma-associated herpesvirus (KSHV))
cryo-EM structure = target: the molecule itself
[3] = target: B1

KSHV triplex protein Tri2 (natural protein)
stoichiometry N [1]: 2 | stoichiometry N [2]: 2

B1
stoichiometry N (cryo-EM structure): 5 and 6

B2
binding result [3]: binds
